PMC4824444

What was measured:
[1] = target: kappa-opioid peptide (KOP) receptor (human (endogenous in THP-1)) (UniProt P41145)
[2] = target: kappa-opioid peptide (KOP) receptor (human (endogenous in THP-1)) (UniProt P41145); remark: listed apart in the source

Chain of UniProt P41145 (P41145 whole entry): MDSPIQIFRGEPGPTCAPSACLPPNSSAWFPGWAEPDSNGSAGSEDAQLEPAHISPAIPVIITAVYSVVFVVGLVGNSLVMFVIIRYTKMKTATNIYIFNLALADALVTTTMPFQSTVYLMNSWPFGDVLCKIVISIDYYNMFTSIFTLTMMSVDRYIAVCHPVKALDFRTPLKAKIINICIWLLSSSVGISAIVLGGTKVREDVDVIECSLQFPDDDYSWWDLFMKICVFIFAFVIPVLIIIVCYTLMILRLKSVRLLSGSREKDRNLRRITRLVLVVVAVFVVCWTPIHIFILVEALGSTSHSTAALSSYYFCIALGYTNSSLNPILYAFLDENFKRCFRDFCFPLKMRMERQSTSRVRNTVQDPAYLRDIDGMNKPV

reduction of LPS-stimulated IL-1β and TNF-α release from differentiated THP-1 cells by DYN 1-7 (0.1 μM, 1 nM, 10 pM; 24 hr; AlphaLISA); reversed by ML-190 at 10 pM (IL-1β, TNF-α) and at 1 nM (TNF-α) [1]: 15 to 30%
inhibition of LPS-stimulated NF-κB/p65 nuclear translocation in differentiated THP-1 cells by DYN 1-7 at 10 nM, relative to the LPS control group; reversed by the KOP receptor antagonist ML-190 (1 μM) [2]: 44%
Substance: Dynorphin 1-7 (peptide)
